According to patent US6482799B1, “Self-preserving multipurpose ophthalmic solutions incorporating a polypeptide antimicrobial” (The Regents of the University of California, priority 1999, dated 2002):
Where no end group is shown, it is not given here.

Test: Corneal penetration of radioactive topical ocular indolicidin formulation
Format: in vivo, New Zealand White Rabbits
Protocol: The objective of this study was to determine the corneal penetration potential of a ^3H-labelled indolicidin molecule. The ^3H labeled L-indolicidin; L-IND was tested for corneal penetration using New Zealand White Rabbits (Western Oregon Rabbit Co.). The rabbit is one of the model species for the assessment of toxicity and is one of the species recommended for that purpose by toxicity testing guidelines of all regulatory agencies. See “Animal Models in the Evaluation of Chemotherapy of Ocular Infections” in Experimental Models in Antimicrobial Chemotherapy, Vol 1, p 187-211.
Administration of ^3H-L-IND was by epicomeal application into both eyes, 20 μL L-IND once hourly for six applications. The animals were euthanized immediately prior to harvesting of aqueous humor.
Male animals were initiated as young adults and weighed 2-3 kg. Two animals were assigned to the test (2/group; one treatment group). […]
Clinical signs were evaluated immediately after 1st dose administration and immediately prior to euthanasia and necroscopy. […]
Evaluations were confined to the eye. […] An estimate of the total volume of aqueous humor harvested was recorded and analyzed for ^3H content. […]
The two samples of aqueous humor from each of the rabbits were analyzed for their radioactivity levels. […]

Substance: ^3H-Indolicidin: ^3H-labelled indolicidin molecule for the corneal penetration study (ILPWKWPWWPWRR-NH2; also: tritium label; UniProt P33046 131-143, looked up)
- radioactivity level in aqueous humor (20 μL epicorneal, once hourly for six applications, both eyes): equal to that of background counts
- corneal penetration (topical ocular, six applications): did not penetrate the cornea
